Source: IntAct's records for PubMed 14532330

B1: Protein phosphatase 1 regulatory subunit 3C (Homo sapiens), Q9UQK1 (parent)
chain: MSCTRMIQVLDPRPLTSSVMPVDVAMRLCLAHSPPVKSFLGPYDEFQRRHFVNKLKPLKSCLNIKHKAKSQNDWKCSHNQAKKRVVFADSKGLSLTAIHVFSDLPEEPAWDLQFDLLDLNDISSALKHHEEKNLILDFPQPSTDYLSFRSHFQKNFVCLENCSLQERTVTGTVKVKNVSFEKKVQIRITFDSWKNYTDVDCVYMKNVYGGTDSDTFSFAIDLPPVIPTEQKIEFCISYHANGQVFWDNNDGQNYRIVHVQWKPDGVQTQMAPQDCAFHQTSPKTELESTIFGSPRLASGLFPEWQSWGRMENLASYR
partner: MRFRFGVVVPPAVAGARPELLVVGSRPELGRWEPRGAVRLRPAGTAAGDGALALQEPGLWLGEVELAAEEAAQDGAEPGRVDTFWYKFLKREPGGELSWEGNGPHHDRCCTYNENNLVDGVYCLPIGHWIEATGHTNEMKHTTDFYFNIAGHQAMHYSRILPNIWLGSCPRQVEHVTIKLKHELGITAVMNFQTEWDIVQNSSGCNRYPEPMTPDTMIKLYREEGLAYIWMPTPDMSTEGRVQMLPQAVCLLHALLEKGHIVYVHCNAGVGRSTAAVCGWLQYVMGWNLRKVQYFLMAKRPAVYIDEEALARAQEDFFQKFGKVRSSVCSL
B2: Laforin (Homo sapiens), O95278 (parent)
chain: B1 partner
partner: B1 chain

Variants of: B1
Details: with epm2a_human EPM2A

Variant | effect of a mutation on the interaction
MSCTRMIQVLDPRPLTSSVMPVDVAMRLCLAHSPPVKSFLGPYDEFQRRHFVNKLKPLKSCLNIKHKAKSQNDWKCSHNQAKKRVVFADSKGLSLTAIHVFSDLPEEPAWDLQFDLLDLNDISSALKHHEEKNLILDFPQPSTDYLSFRSHFQKNFVCLENCSLQERTVTGTVKVKNVSFEKKVQIRITFDSWKNYTDVDCVYMKNVYGGTDSDTFSFAIDLPPVIPTEQKIEFCISYHANGQVFWANNAGQNYRIVHVQWKPDGVQTQMAPQDCAFHQTSPKTELESTIFGSPRLASGLFPEWQSWGRMENLASYR [D247A;D250A] | disrupting interaction

Variants of: B2
Details: with ppr3c_human PPP1R3C

Variant | effect of a mutation on the interaction
MRFRFGVVVPPAVAGARPELLVVGSRPELGRGEPRGAVRLRPAGTAAGDGALALQEPGLWLGEVELAAEEAAQDGAEPGRVDTFWYKFLKREPGGELSWEGNGPHHDRCCTYNENNLVDGVYCLPIGHWIEATGHTNEMKHTTDFYFNIAGHQAMHYSRILPNIWLGSCPRQVEHVTIKLKHELGITAVMNFQTEWDIVQNSSGCNRYPEPMTPDTMIKLYREEGLAYIWMPTPDMSTEGRVQMLPQAVCLLHALLEKGHIVYVHCNAGVGRSTAAVCGWLQYVMGWNLRKVQYFLMAKRPAVYIDEEALARAQEDFFQKFGKVRSSVCSL [W32G] | disrupting interaction
MRFRFGVVVPPAVAGARPELLVVGSRPELGRWEPRGAVRLRPAGTAAGDGALALQEPGLWLGEVELAAEEAAQDGAEPGRVDTLWYKFLKREPGGELSWEGNGPHHDRCCTYNENNLVDGVYCLPIGHWIEATGHTNEMKHTTDFYFNIAGHQAMHYSRILPNIWLGSCPRQVEHVTIKLKHELGITAVMNFQTEWDIVQNSSGCNRYPEPMTPDTMIKLYREEGLAYIWMPTPDMSTEGRVQMLPQAVCLLHALLEKGHIVYVHCNAGVGRSTAAVCGWLQYVMGWNLRKVQYFLMAKRPAVYIDEEALARAQEDFFQKFGKVRSSVCSL [F84L] | disrupting interaction
MRFRFGVVVPPAVAGARPELLVVGSRPELGRWEPRGAVRLRPAGTAAGDGALALQEPGLWLGEVELAAEEAAQDGAEPGRVDTFWYKFLKREPGGELSWEGNGPHHDCCCTYNENNLVDGVYCLPIGHWIEATGHTNEMKHTTDFYFNIAGHQAMHYSRILPNIWLGSCPRQVEHVTIKLKHELGITAVMNFQTEWDIVQNSSGCNRYPEPMTPDTMIKLYREEGLAYIWMPTPDMSTEGRVQMLPQAVCLLHALLEKGHIVYVHCNAGVGRSTAAVCGWLQYVMGWNLRKVQYFLMAKRPAVYIDEEALARAQEDFFQKFGKVRSSVCSL [R108C] | disrupting interaction
MRFRFGVVVPPAVAGARPELLVVGSRPELGRWEPRGAVRLRPAGTAAGDGALALQEPGLWLGEVELAAEEAAQDGAEPGRVDTFWYKFLKREPGGELSWEGNGPHHDRCCTYNENNLVDGVYCLPIGHWIEATGHTNEMKHTTDFYFNIAGHQAMHYSRILPNIWLGSCPRQVEHVTIKLKHELGITAVMNFQIEWDIVQNSSGCNRYPEPMTPDTMIKLYREEGLAYIWMPTPDMSTEGRVQMLPQAVCLLHALLEKGHIVYVHCNAGVGRSTAAVCGWLQYVMGWNLRKVQYFLMAKRPAVYIDEEALARAQEDFFQKFGKVRSSVCSL [T194I] | disrupting interaction
MRFRFGVVVPPAVAGARPELLVVGSRPELGRWEPRGAVRLRPAGTAAGDGALALQEPGLWLGEVELAAEEAAQDGAEPGRVDTFWYKFLKREPGGELSWEGNGPHHDRCCTYNENNLVDGVYCLPIGHWIEATGHTNEMKHTTDFYFNIAGHQAMHYSRILPNIWLGSCPRQVEHVTIKLKHELGITAVMNFQTEWDIVQNSSGCNRYPEPMTPDTMIKLYREEGLAYIWMPTPDMSTESRVQMLPQAVCLLHALLEKGHIVYVHCNAGVGRSTAAVCGWLQYVMGWNLRKVQYFLMAKRPAVYIDEEALARAQEDFFQKFGKVRSSVCSL [G240S] | decreasing interaction
MRFRFGVVVPPAVAGARPELLVVGSRPELGRWEPRGAVRLRPAGTAAGDGALALQEPGLWLGEVELAAEEAAQDGAEPGRVDTFWYKFLKREPGGELSWEGNGPHHDRCCTYNENNLVDGVYCLPIGHWIEATGHTNEMKHTTDFYFNIAGHQAMHYSRILPNIWLGSCPRQVEHVTIKLKHELGITAVMNFQTEWDIVQNSSGCNRYPEPMTPDTMIKLYREEGLAYIWMPTPDMSTEGRVQMLPQAVCLLHALLEKGHIVYVHSNAGVGRSTAAVCGWLQYVMGWNLRKVQYFLMAKRPAVYIDEEALARAQEDFFQKFGKVRSSVCSL [C266S] | increasing interaction
MRFRFGVVVPPAVAGARPELLVVGSRPELGRWEPRGAVRLRPAGTAAGDGALALQEPGLWLGEVELAAEEAAQDGAEPGRVDTFWYKFLKREPGGELSWEGNGPHHDRCCTYNENNLVDGVYCLPIGHWIEATGHTNEMKHTTDFYFNIAGHQAMHYSRILPNIWLGSCPRQVEHVTIKLKHELGITAVMNFQTEWDIVQNSSGCNRYPEPMTPDTMIKLYREEGLAYIWMPTPDMSTEGRVQMLPQAVCLLHALLEKGHIVYVHCNAGVGRSTAAVCSWLQYVMGWNLRKVQYFLMAKRPAVYIDEEALARAQEDFFQKFGKVRSSVCSL [G279S] | decreasing interaction
MRFRFGVVVPPAVAGARPELLVVGSRPELGRWEPRGAVRLRPAGTAAGDGALALQEPGLWLGEVELAAEEAAQDGAEPGRVDTFWYKFLKREPGGELSWEGNGPHHDRCCTYNENNLVDGVYCLPIGHWIEATGHTNEMKHTTDFYFNIAGHQAMHYSRILPNIWLGSCPRQVEHVTIKLKHELGITAVMNFQTEWDIVQNSSGCNRYPEPMTPDTMIKLYREEGLAYIWMPTPDMSTEGRVQMLPQAVCLLHALLEKGHIVYVHCNAGVGRSTAAVCGWLQYVMGWNLRKVLYFLMAKRPAVYIDEEALARAQEDFFQKFGKVRSSVCSL [Q293L] | disrupting interaction
MRFRFGVVVPPAVAGARPELLVVGSRPELGRWEPRGAVRLRPAGTAAGDGALALQEPGLWLGEVELAAEEAAQDGAEPGRVDTFWYKFLKREPGGELSWEGNGPHHDRCCTYNENNLVDGVYCLPIGHWIEATGHTNEMKHTTDFYFNIAGHQAMHYSRILPNIWLGSCPRQVEHVTIKLKHELGITAVMNFQTEWDIVQNSSGCNRYPEPMTPDTMIKLYREEGLAYIWMPTPDMSTEGRVQMLPQAVCLLHALLEKGHIVYVHCNAGVGRSTAAVCGWLQYVMGWNLRKVQNFLMAKRPAVYIDEEALARAQEDFFQKFGKVRSSVCSL [Y294N] | disrupting interaction
MRFRFGVVVPPAVAGARPELLVVGSRPELGRWEPRGAVRLRPAGTAAGDGALALQEPGLWLGEVELAAEEAAQDGAEPGRVDTFWYKFLKREPGGELSWEGNGPHHDRCCTYNENNLVDGVYCLPIGHWIEATGHTNEMKHTTDFYFNIAGHQAMHYSRILPNIWLGSCPRQVEHVTIKLKHELGITAVMNFQTEWDIVQNSSGCNRYPEPMTPDTMIKLYREEGLAYIWMPTPDMSTEGRVQMLPQAVCLLHALLEKGHIVYVHCNAGVGRSTAAVCGWLQYVMGWNLRKVQYFLMAKRLAVYIDEEALARAQEDFFQKFGKVRSSVCSL [P301L] | disrupting interaction
